Measured values from patent publication CN115141281A (dated 2022).

Molecular target: T1, 人环氧合酶-2(COX-2) (human, UniProt P35354 18-604, limits assumed)
T1 construct: also called 人COX-2; 重组人COX2
T1 sequence (looked up): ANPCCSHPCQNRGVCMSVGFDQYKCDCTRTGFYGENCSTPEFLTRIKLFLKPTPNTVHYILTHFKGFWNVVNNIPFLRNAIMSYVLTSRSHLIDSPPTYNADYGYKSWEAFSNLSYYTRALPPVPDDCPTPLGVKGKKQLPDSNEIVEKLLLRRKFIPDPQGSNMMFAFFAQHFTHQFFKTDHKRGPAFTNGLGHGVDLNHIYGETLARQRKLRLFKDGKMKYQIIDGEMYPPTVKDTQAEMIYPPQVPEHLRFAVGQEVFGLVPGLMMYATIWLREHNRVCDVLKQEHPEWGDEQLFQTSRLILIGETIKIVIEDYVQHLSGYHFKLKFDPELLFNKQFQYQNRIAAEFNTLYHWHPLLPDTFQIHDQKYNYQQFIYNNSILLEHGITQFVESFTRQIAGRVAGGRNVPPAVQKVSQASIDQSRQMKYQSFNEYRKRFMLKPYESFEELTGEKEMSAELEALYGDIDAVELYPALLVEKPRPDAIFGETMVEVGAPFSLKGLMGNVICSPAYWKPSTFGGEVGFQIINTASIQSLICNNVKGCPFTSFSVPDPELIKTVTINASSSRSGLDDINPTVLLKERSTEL
Test: BLI, antibody (25 nM) loaded on AHC sensor, two-fold dilutions of human COX-2 in solution

B1: COX-2-HM4E6单克隆抗体 (antibody, V domains shown)
VH: EVQLEESATELARPGASVKLSCKASGYIFSVLMILWIKQRPGQGLEWIGLCKMLIPNFNMRHALFGKATLTADKSSSTAYMQLSSLASEDSAVYYCAGFIDNIWYWGLGTTLAVSS
VL: DIVITQRPALMAASPGEKVTITCQDSGNVYRNEKPWYQQKSGISPKPWIYYATHFTKGVPARFSGSGSGTSYSLTITSMEAEDAATYYCTFGCKHFDHFGAGTKLELK
Kd: 0.696 nM
